Laboratory results taken from PMC8231982 (Molecules, 2021).

Assays:
Conditions in all cases: both partners purified
HA H3 top domain [1] = target: T1, HA H3 top domain ( (Figure 2 shows HA of …, UniProt P03437)); test: SPR
T1 construct: source: HEK293T, pTT5 vector, purified via His-tag on Ni-NTA

HA H3 top domain [2] = target: T1, HA H3 top domain; test: ELISA
[3] = target: T2, wild-type cyanovirin-N (WT CV–N) ( (cyanobacterial lectin), UniProt P81180 1-101); test: SPR
T2 construct: also called WT CV–N monomer; monomeric CV–N
T2 sequence: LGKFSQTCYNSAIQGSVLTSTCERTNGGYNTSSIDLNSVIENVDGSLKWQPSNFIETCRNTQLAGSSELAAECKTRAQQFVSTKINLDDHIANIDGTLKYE

B1: HC19 Fab, anti-influenza HA (Fab, V domains shown)
VH: QVQLKESGPGLVAPSQSLSITCTVSGFLLISNGVHWVRQPPGKGLEWLGVIWAGGNTNYNSALMSRVSISKDNSKSQVFLKMKSLQTDDTAMYYCARDFYDYDVFYYAMDYWGQGTSVTVSS
VL: QAVVTQESALTTSPGETVTLTCRSSTGAVTTSNYANWVQEKPDHLFTGLIGGTNNRAPGVPARFSGSLIGDKAALTITGAQTEDEAIYFCALWYSNHWVFGGGTKLTVL
notes: also called anti-HA HC19; HC19 anti-influenza Fab; source: HEK293-6E, transient transfection, purified from supernatant (protein A, SEC)
Q: What does the source list for B1?
A: Kd (HA H3 top domain [1]): 64 nM; koff (HA H3 top domain [1]): 0.0231 s⁻¹; kon (HA H3 top domain [1]): 360000 M⁻¹ s⁻¹; Kd (HA H3 top domain [2]): 12.5 nM

B2: HIV-1 gp140 trimer, Clade A 92 UG 037.8 (domain or fragment)
chain: not shown
Q: With B2 as the binder, how does the Kd [3] read?
A: The Kd was 120 nM.
